Results as given in FireProtDB.
Several values for one entry are separate records, joined by “and”; a condition that tells them apart may be missing. Equal values may be shown once.

[1] = Saccharomyces cerevisiae (strain ATCC 204508 / S288c), pH 6, 20 °C, GdnHCl, Fluorescence, Sodium phosphate 0.1 M, reversible: yes
[2] = Saccharomyces cerevisiae (strain ATCC 204508 / S288c), pH 7, 25 °C, GdnHCl, CD, Tris 20 mM, NaCl 40 mM, reversible: yes
[3] = Saccharomyces cerevisiae (strain ATCC 204508 / S288c), pH 7.5, 22 °C, GdnHCl, CD, Tris 20 mM, NaCl 40 mM
[4] = Homo sapiens, pH 7.5, Thermal, CD, HEPES 0.8mM, NaCl 6mM, transition: 2, structure 6EW2
[5] = Saccharomyces cerevisiae (strain ATCC 204508 / S288c), pH 6, 46.5 °C, Thermal, Absorbance, Sodium phosphate 100 mM, reversible: yes, structure 1YCC
[6] = Saccharomyces cerevisiae (strain ATCC 204508 / S288c), pH 6, Thermal, Absorbance, Sodium phosphate 100 mM, reversible: yes, structure 1YCC
[7] = Saccharomyces cerevisiae (strain ATCC 204508 / S288c), pH 4.6, 37 °C, Thermal, DSC, Potassium acetate 0.1 M, reversible: yes, structure 1YCC
[8] = Homo sapiens, pH 7.4, Thermal, CD, phosphate 10 mM, NaCl 10 mM, transition: 2, structure 2NLU
[9] = Escherichia coli (strain K12), pH 7.2, 51.8 °C, Thermal, DSC, HEPES 0.05 mM, structure 1ANK
[10] = Escherichia coli (strain K12), pH 7.2, Thermal, DSC, HEPES 0.05 mM, structure 1ANK
[11] = Escherichia coli (strain K12), pH 7, 30 °C, Urea, CD, Potassium phosphate 10 mM
[12] = Saccharomyces cerevisiae (strain ATCC 204508 / S288c), pH 7.5, 22 °C, GdnHCl, CD, Tris 20 mM, NaCl 40 mM, structure 1YCC
[13] = Saccharomyces cerevisiae (strain ATCC 204508 / S288c), pH 6, 20 °C, GdnHCl, Fluorescence, Sodium phosphate 0.1 M, reversible: yes, structure 1YCC
[14] = Escherichia coli (strain K12), pH 7.4, Thermal, DSC, HEPES 50 mM, structure 1ANK
[15] = Escherichia coli (strain K12), pH 7.2, Thermal, DSC, HEPES 0.05 mM
[16] = Escherichia coli (strain K12), pH 7.4, Thermal, DSC, HEPES 50 mM
[17] = Cyprinus carpio, pH 7.5, Thermal, CD, Sodium phosphate 10 mM, CaCl2 0.00001 M
[18] = Homo sapiens, pH 7.5, Thermal, DSF, Hepes 25mM, NaCl 150mM, structure 6DLO

Sequence of Parvalbumin beta wild type, P02618 (P02618 whole entry): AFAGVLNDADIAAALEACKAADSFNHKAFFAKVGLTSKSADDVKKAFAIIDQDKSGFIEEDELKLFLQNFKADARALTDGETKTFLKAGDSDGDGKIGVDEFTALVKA
Sequence of Cytochrome c isoform 1 N58I, P00044 (P00044 whole entry N58I, canonical isoform): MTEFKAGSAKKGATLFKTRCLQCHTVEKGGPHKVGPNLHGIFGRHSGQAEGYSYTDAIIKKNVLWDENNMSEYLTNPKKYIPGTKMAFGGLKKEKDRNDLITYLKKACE
Sequence of Cytochrome c isoform 1 H32N|H39N|H45Q|C108S, P00044 H32N H39N H45Q C108S (P00044 whole entry H32N/H39N/H45Q/C108S, canonical isoform): as the sequence (P00044 whole entry N58I, canonical isoform) above, with H32N, H39N, H45Q, I58N, C108S counted along it
Sequence of Cytochrome c isoform 1 N58G|C108A, P00044 N58G C108A (P00044 whole entry N58G/C108A, canonical isoform): as the sequence (P00044 whole entry N58I, canonical isoform) above, with I58G, C108A counted along it
Sequence of Cytochrome c isoform 1 H39P|N58I, P00044 H39P N58I (P00044 whole entry H39P/N58I, canonical isoform): as the sequence (P00044 whole entry N58I, canonical isoform) above, with H39P counted along it
Sequence of Tropomyosin alpha-1 chain wild type, P04268 (P04268 whole entry): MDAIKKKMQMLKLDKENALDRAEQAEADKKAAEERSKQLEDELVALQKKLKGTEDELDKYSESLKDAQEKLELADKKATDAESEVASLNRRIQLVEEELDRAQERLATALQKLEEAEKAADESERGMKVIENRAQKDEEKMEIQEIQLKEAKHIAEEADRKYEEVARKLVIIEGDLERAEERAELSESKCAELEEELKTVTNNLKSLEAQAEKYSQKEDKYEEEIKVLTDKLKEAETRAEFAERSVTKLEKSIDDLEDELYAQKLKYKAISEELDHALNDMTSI
Sequence of Cytochrome c isoform 1 wild type, P00044 (P00044 whole entry, canonical isoform): as the sequence (P00044 whole entry N58I, canonical isoform) above, with I58N counted along it
Sequence of Cytochrome c isoform 1 P77I, P00044 (P00044 whole entry P77I, canonical isoform): as the sequence (P00044 whole entry N58I, canonical isoform) above, with I58N, P77I counted along it
Sequence of Cytochrome c isoform 1 C108A, P00044 (P00044 whole entry C108A, canonical isoform): as the sequence (P00044 whole entry N58I, canonical isoform) above, with I58N, C108A counted along it
Sequence of Adenylate kinase wild type, P69441 (P69441 whole entry): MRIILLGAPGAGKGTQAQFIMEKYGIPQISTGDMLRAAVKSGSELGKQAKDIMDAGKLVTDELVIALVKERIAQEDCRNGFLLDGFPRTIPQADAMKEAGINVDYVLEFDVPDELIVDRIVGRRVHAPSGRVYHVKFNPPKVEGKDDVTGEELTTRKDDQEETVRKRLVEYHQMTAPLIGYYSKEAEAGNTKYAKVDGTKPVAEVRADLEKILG
Sequence of Hepatoma-derived growth factor P24A, P51858 (P51858 whole entry P24A): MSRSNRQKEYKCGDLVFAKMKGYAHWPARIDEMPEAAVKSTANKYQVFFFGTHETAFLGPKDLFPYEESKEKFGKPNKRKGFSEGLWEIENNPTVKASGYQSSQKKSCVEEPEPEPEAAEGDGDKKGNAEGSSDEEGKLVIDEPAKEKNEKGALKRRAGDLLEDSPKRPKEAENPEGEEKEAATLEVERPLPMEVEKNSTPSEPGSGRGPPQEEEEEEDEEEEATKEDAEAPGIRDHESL
Sequence of Creatine kinase B-type wild type, P12277 (P12277 whole entry): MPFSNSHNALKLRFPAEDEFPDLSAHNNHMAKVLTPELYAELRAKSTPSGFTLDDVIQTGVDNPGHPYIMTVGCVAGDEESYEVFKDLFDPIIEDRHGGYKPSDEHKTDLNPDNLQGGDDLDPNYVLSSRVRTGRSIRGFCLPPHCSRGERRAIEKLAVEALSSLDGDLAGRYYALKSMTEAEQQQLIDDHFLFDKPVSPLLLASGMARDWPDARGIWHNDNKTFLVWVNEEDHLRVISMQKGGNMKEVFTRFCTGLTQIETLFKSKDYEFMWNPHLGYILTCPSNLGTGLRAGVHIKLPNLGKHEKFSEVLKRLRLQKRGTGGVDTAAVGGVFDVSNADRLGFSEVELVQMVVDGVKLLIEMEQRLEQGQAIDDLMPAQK
Sequence of Cytochrome c wild type, P67881 (P67881 whole entry): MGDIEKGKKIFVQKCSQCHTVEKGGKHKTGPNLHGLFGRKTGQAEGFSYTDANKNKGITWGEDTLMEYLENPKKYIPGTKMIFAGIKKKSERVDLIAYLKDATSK
Sequence of Cytochrome c wild type, P00041 (P00041 whole entry): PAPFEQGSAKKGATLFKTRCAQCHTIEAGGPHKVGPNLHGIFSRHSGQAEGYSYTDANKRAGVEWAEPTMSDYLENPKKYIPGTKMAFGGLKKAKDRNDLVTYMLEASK
Sequence of Hepatoma-derived growth factor wild type, P51858 (P51858 whole entry): as the sequence (P51858 whole entry P24A) above, with A24P counted along it

Cytochrome c isoform 1 wild type, P00044
unfolding free energy (Saccharomyces cerevisiae (strain ATCC 204508 / S288c), pH 4.6, 25 °C, Thermal, Absorbance, Sodium acetate 100 mM, reversible: yes): 5.3 kcal/mol | unfolding free energy (Saccharomyces cerevisiae (strain ATCC 204508 / S288c), pH 4.6, 25 °C, Thermal, CD, Sodium acetate 100 mM, reversible: yes): 5.3 kcal/mol | unfolding free energy (Saccharomyces cerevisiae (strain ATCC 204508 / S288c), pH 4.6, 27 °C, GdnHCl, CD, Sodium acetate 50 mM, reversible: yes): 5.6 kcal/mol and 15 kcal/mol | denaturant midpoint (higher = more stable) [1]: 1.07 M | unfolding free energy [1]: 3.6 kcal/mol | unfolding free energy (Saccharomyces cerevisiae (strain ATCC 204508 / S288c), pH 6, 25 °C, Thermal, Absorbance, Sodium phosphate 100 mM, reversible: yes): 3.8 kcal/mol | denaturant m value [2]: 3.71 kcal/mol/M | denaturant midpoint (higher = more stable) [2]: 1.06 M | unfolding free energy [2]: 3.93 kcal/mol | denaturant m value [3]: 4.24 kcal/mol/M | denaturant midpoint (higher = more stable) [3]: 1.19 M | unfolding free energy [3]: 5.05 kcal/mol

Myelin P2 protein (from UniProt P02689) T51P
change of melting temperature, mutant - wild type (higher = more stable) [4]: -24 °C | ddG of mutation (higher = less stable) [4]: 1.51 kcal/mol

Cytochrome c isoform 1 H39P|N58I, P00044 H39P N58I
ddG of mutation (higher = less stable) [5]: 0.8 kcal/mol | heat capacity change of unfolding [5]: 2 kcal/mol/K | Tm [6]: 43.1 °C | change of melting temperature, mutant - wild type (higher = more stable) [6]: -3.4 °C | heat capacity change of unfolding [6]: 2 kcal/mol/K | unfolding enthalpy (van 't Hoff) [6]: 61 kcal/mol

Cytochrome c isoform 1 N58I, P00044
unfolding free energy (Saccharomyces cerevisiae (strain ATCC 204508 / S288c), pH 4.6, 27 °C, GdnHCl, CD, Sodium acetate 50 mM, reversible: yes, structure 1YCC): 6.8 kcal/mol and 18 kcal/mol | ddG of mutation (higher = less stable) [7]: -3.14 kcal/mol | unfolding free energy [7]: 7.17 kcal/mol | ddG of mutation (higher = less stable) [5]: -4.3 kcal/mol | heat capacity change of unfolding [5]: 2 kcal/mol/K

Hepatoma-derived growth factor P24A, P51858
Tm [8]: 40 °C | change of melting temperature, mutant - wild type (higher = more stable) [8]: -7 °C

APRLPQCQGDDQEKCLCNKDECPPGQCRFPRGDADPYCE [Decorsin wild type]
Tm (Macrobdella decora, pH 7, Thermal, CD, Na2HPO4 10 mM, reversible: Yes, whole UniProt chain shown): 74 °C

Adenylate kinase D84H, P69441
ddG of mutation (higher = less stable) [9]: 1.4 kcal/mol | Tm [10]: 44.6 °C | change of melting temperature, mutant - wild type (higher = more stable) [10]: -7.2 °C | unfolding enthalpy (calorimetric) [10]: 63 kcal/mol

Hepatoma-derived growth factor wild type, P51858
Tm (Homo sapiens, pH 7.4, Thermal, CD, phosphate 10 mM, NaCl 10 mM, transition: 2): 47 °C

QQHADPICNKPCKTHDDCSGAWFCQACWNSARTCGPYVG [Metallocarboxypeptidase inhibitor wild type]
denaturant midpoint (higher = more stable) (Solanum tuberosum, pH 8.4, 23 °C, GdnHCl, Fluorescence, Tris-HCl 0.1 M, whole UniProt chain shown): 1.45 M | denaturant midpoint (higher = more stable) (Solanum tuberosum, pH 8.4, 23 °C, GdnSCN, Fluorescence, Tris-HCl 0.1 M, whole UniProt chain shown): 0.7 M

Phosphocarrier protein HPr wild type, P0AA04
denaturant m value [11]: 1.06 kcal/mol/M | denaturant midpoint (higher = more stable) [11]: 4.34 M | unfolding free energy (Escherichia coli (strain K12), pH 7, 30 °C, Urea, CD, Potassium phosphate 50 mM, reversible: yes): 4.95 kcal/mol | Tm (Escherichia coli (strain K12), pH 7, Thermal, CD, Potassium phosphate 10 mM): 30 °C

Cytochrome c isoform 1 H32N|H39N|H45Q|C108S, P00044 H32N H39N H45Q C108S
ddG of mutation (higher = less stable) [12]: 1.05 kcal/mol | denaturant m value [12]: 3.83 kcal/mol/M | denaturant midpoint (higher = more stable) [12]: 1.04 M | unfolding free energy [12]: 4 kcal/mol

Myelin P2 protein (from UniProt P02689) I52T
change of melting temperature, mutant - wild type (higher = more stable) [4]: -13 °C | ddG of mutation (higher = less stable) [4]: 5.17 kcal/mol

Creatine kinase B-type wild type, P12277
Tm (Homo sapiens, pH 8, Thermal, CD, Tris-HCl, transition: 2, reversible: No): 47.3 °C | Tm (Homo sapiens, pH 8, Thermal, Fluorescence, Tris-HCl, transition: 2, reversible: No): 45.7 °C

Cytochrome c isoform 1 P77I, P00044
ddG of mutation (higher = less stable) [13]: 1.7 kcal/mol | denaturant midpoint (higher = more stable) [13]: 0.72 M | unfolding free energy [13]: 1.9 kcal/mol

Adenylate kinase R88G, P69441
ddG of mutation (higher = less stable) (Escherichia coli (strain K12), pH 7.4, 51.8 °C, Thermal, DSC, HEPES 50 mM, structure 1ANK): 0.2 kcal/mol | Tm [14]: 51 °C | change of melting temperature, mutant - wild type (higher = more stable) [14]: -0.8 °C | unfolding enthalpy (calorimetric) [14]: 75 kcal/mol | unfolding enthalpy (van 't Hoff) [14]: 161 kcal/mol

Tropomyosin alpha-1 chain wild type, P04268
unfolding free energy (Gallus gallus, pH 7, 39 °C, Thermal, CD, Sodium phosphate 10 mM, NaCl 0.5 M, reversible: yes): 9 kcal/mol and 12.4 kcal/mol and 9.6 kcal/mol | unfolding enthalpy (van 't Hoff) (Gallus gallus, pH 7, Thermal, CD, Sodium phosphate 10 mM, NaCl 0.5 M, reversible: yes): 162 kcal/mol and 225 kcal/mol and 98 kcal/mol

Cytochrome c wild type, P67881
unfolding free energy (Gallus gallus, pH 7, 25 °C, NaClO4 titration, CD, PIPES 10 mM, NaCl 50 mM, reversible: no): 5.17 kcal/mol

Cytochrome c isoform 1 C108A, P00044
ddG of mutation (higher = less stable) [5]: -2.9 kcal/mol | heat capacity change of unfolding [5]: 2 kcal/mol/K | Tm [6]: 58.1 °C | change of melting temperature, mutant - wild type (higher = more stable) [6]: 11.6 °C | heat capacity change of unfolding [6]: 2 kcal/mol/K | unfolding enthalpy (van 't Hoff) [6]: 89 kcal/mol

Adenylate kinase wild type, P69441
Tm [15]: 51.8 °C | unfolding enthalpy (calorimetric) [15]: 95 kcal/mol | Tm [16]: 51.8 °C | unfolding enthalpy (calorimetric) [16]: 95 kcal/mol | unfolding enthalpy (van 't Hoff) [16]: 158 kcal/mol

Cytochrome c wild type, P00041
unfolding free energy (Pichia kudriavzevii, pH 6.5, 25 °C, GdnHCl, CD, HCl 0.1 M, reversible: yes): 14 kcal/mol

Adenylate kinase F86L, P69441
ddG of mutation (higher = less stable) [9]: 0.8 kcal/mol | Tm [10]: 49.2 °C | change of melting temperature, mutant - wild type (higher = more stable) [10]: -2.6 °C | unfolding enthalpy (calorimetric) [10]: 97 kcal/mol

Parvalbumin beta wild type, P02618
Tm [17]: 90 °C | heat capacity change of unfolding [17]: 1.1 kcal/mol/K | unfolding enthalpy (calorimetric) [17]: 120 kcal/mol | Tm (Cyprinus carpio, pH 7.5, Thermal, CD, Sodium phosphate 10 mM, EDTA 5 mM): 32 °C | Tm (Cyprinus carpio, pH 7.5, Thermal, CD, Sodium phosphate 10 mM, NaCl 2 M): 55 °C

Cytochrome c isoform 1 N58G|C108A, P00044 N58G C108A
ddG of mutation (higher = less stable) [5]: -0.9 kcal/mol | heat capacity change of unfolding [5]: 2 kcal/mol/K | Tm [6]: 50.1 °C | change of melting temperature, mutant - wild type (higher = more stable) [6]: 3.6 °C | heat capacity change of unfolding [6]: 2 kcal/mol/K | unfolding enthalpy (van 't Hoff) [6]: 50 kcal/mol

Leucine-rich repeat serine/threonine-protein kinase 2, Q5S007 G2385R
Tm [18]: 31.3 °C | change of melting temperature, mutant - wild type (higher = more stable) [18]: 0.33 °C
